Data taken from paper PMC4555817.

Biological target: GST-tagged full-length cortactin (UniProt Q60598)
Experiment: pull-down

Sequence of UniProt Q60598 (Q60598 whole entry): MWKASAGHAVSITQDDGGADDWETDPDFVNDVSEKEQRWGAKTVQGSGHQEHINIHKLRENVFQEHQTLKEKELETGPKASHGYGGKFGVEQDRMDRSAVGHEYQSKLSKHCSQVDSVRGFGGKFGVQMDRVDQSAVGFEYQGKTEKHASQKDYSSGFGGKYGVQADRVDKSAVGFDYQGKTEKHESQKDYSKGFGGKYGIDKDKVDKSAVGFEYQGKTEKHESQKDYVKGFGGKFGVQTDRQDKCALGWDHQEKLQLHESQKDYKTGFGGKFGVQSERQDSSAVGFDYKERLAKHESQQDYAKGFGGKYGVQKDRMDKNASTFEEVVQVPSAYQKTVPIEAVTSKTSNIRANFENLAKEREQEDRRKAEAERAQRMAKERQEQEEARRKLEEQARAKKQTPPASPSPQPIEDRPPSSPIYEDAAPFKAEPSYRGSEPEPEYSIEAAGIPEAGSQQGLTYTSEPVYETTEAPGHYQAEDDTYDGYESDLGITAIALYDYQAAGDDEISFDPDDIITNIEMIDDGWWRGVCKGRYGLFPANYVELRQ

Ki: 0.461 µM
Substance: actin filaments (from UniProt P68139 1-377) (natural protein)
